Assay results reported in ChEMBL document CHEMBL1134716, “Synthesis and evaluation of GGPP geometric isomers: divergent substrate specificities of FTase and GGTase I” (Bioorg Med Chem Lett, 2001).

What was measured:
[1] = system: CC(C)=CCC/C(C)=C\CC/C(C)=C/COP(=O)(O)OP(=O)(O)O; assay: (§1) Kinetic constant for recombinant mammalian Farnesyltransferase expressed in baculovirus by fluorescence assay
[2] = system: CC(C)=CCC/C(C)=C/CC/C(C)=C\CC/C(C)=C/COP(=O)(O)OP(=O)(O)O; assay: as §1
[3] = system: CC(C)=CCC/C(C)=C/CC/C(C)=C\COP(=O)(O)OP(=O)(O)O; assay: as §1
[4] = system: CC(C)=CCC/C(C)=C/CC/C(C)=C/CC/C(C)=C\COP(=O)(O)OP(=O)(O)O; assay: as §1
[5] = target: Protein farnesyltransferase (Homo sapiens) (UniProt P49354+P49356); assay: Activity as substrate for recombinant mammalian Farnesyltransferase expressed in baculovirus; activity expressed as Vmax relative to the Vmax of E,E-FPP

| Compound | Krel [5] | also measured |
| --- | --- | --- |
| Protein farnesyltransferase (Homo sapiens) (from UniProt P49354+P49356) |  | Km [1]: 0.136 µM; Km [2]: 0.481 µM; Km [3]: 0.225 µM; Km [4]: 0.021 µM |
| CC(C)=CCC/C(C)=C/CC/C(C)=C\CC/C(C)=C/COP(=O)(O)OP(=O)(O)O | 0.4 |  |
| CC(C)=CCC/C(C)=C\CC/C(C)=C/COP(=O)(O)OP(=O)(O)O | 0.41 |  |
| CC(C)=CCC/C(C)=C/CC/C(C)=C\COP(=O)(O)OP(=O)(O)O | 0.47 |  |
| CC(C)=CCC/C(C)=C/CC/C(C)=C/CC/C(C)=C\COP(=O)(O)OP(=O)(O)O | 0.67 |  |
